Here are results for five molecules from paper PMC12408340 (Nature, 2025).

Data set [1] has as its target FCoV-23 S domain B (receptor-binding domain, RBD), residues 529-677 (FCoV-23 (feline coronavirus)). As to the kind of experiment: BLI; […]; global 1:1 fit; […]. On the technique in general: Biolayer interferometry detects binding as a change in optical thickness at a sensor tip.
The target in data set [2] is T1, CCoV-HuPn-2018 S domain B (receptor-binding domain, RBD), residues 523-671 (CCoV-HuPn-2018 (canine coronavirus)).
T1 chain: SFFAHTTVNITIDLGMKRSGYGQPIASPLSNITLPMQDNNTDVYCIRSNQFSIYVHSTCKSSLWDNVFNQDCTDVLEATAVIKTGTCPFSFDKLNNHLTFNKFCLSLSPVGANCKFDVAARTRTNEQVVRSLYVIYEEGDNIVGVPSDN
As to the kind of experiment: BLI.

The data set “cryo-EM structure” concerns the molecule itself. As to the kind of experiment: cryo-EM structure.

As to “Felis catus APN ectodomain fused to a human Fc fragment (FcAPN-Fc) (from UniProt P79171 64-967) (Fc fusion)”, the Kd (commonly the constant that tells how readily two partners part at equilibrium) in data set [1] was 11 nM.
Same read-out and setting: then “Canis lupus familiaris APN ectodomain fused to a human Fc fragment (CfAPN-Fc) (from UniProt P79143 71-975) (Fc fusion)”, with 1.3 nM.

B1: Canis lupus familiaris APN ectodomain fused to a human Fc fragment (CfAPN-Fc) (Fc fusion)
chain: LAQSKPWNHYRLPKTLIPSSYNVTLRPYLTPNSNGLYTFKGSSTVRFTCKESTSMIIIHSKKLNYTNIQGQRVALRGVGGSQAPAIDRTELVEVTEYLVVHLREPLQVNSQYEMDSKFEGELADDLAGFYRSEYTENGVKKVLATTQMQAADARKSFPCFDEPAMKATFNITLIHPSNLVALSNMLPRGPSVPFTEEPNWNVTEFETTPIMSTYLLAYIVSEFKNVQENTPSNVLIRIWARPSAMDQGHGNYALRVTGPILDFFSRHYDTPYPLNKSDQIALPDFNAGAMENWGLVTYRESALLYDPQSSSIGNKERVVTVIAHELAHQWFGNLVTLEWWNDLWLNEGFASYVEYLGADYAEPTWNLKDLIVLNEVYRVMAVDALASSHPLSSPASEVNTPAQISEVFDSISYSKGASVLRMLSSFLTEDLFKKGVASYLHTFAYQNTIYLDLWNHLQWALGNQTAINLPYTVNAIMDRWILQMGFPVVTVDTTTGTLSQKHFLLDPQSNVTRPSKFNYLWIIPISSVKSGTQQAHYWMPDNAKVQNDLFKTTGDEWVLLNLNVTGYYLVNYDQNNWKKIHTQLQTDLSVIPVINRAQVIHDTFDLASAQIVPVTLALNSTLFLNQETEYMPWEAALSSLSYFKLMFDRSEVYGPMKNYLRKQVTPLFNHFEKITQNWTDHPQTLTEQYNEINAVSTACTYGVPKCKDLVSTLFAEWRKNPQNNPIYPNLRSTVYCNAIAQGGEEEWNFVWEQFRNTSLVNEADKLRSALACSTQVWILNRYLSYTLNPEFIRKQDVISTLSSIASNVIGQSLAWDFIQSNWKKLFEDYGTGSFSFSNLIQAVTRRFSTEFELQQLEQFKANNMDTGFGSGTRALEQALEKTKANIKWVKENKEAVLQWFRENSQ
Molecule B1 had a Kd in data set [2] of 2.6 nM.

B2: Felis catus APN ectodomain fused to a human Fc fragment (FcAPN-Fc) (Fc fusion)
chain: DQSKPWNVYRLPKTLIPDSYNVTLRPYLTPNNKGLYVFTGTNIVRFTCKESTNIVIIHSKRLNYTSHQGHMVALSGVGGFHPQPVIVRTELVELTEYLVVHLQEPLVAGRQYEMNSEFQGELADDLAGFYRSEYMENGVKKVLATTHMQATEARKSFPCFDEPAMKATFNITIIHPNNLVALSNMLPRGPSVPFGEDPTWKVTEFETTPIMSTYLLAYIVSEFSYVETRAPSGVLIRIWARPSAINQGHGDYALKVTGPILDFFSQHYDTPYPLNKSDQIALPDFNAGAMENWGLVTYRESALLYDRQSSSSGNQERVVTVIAHELAHQWFGNLVTLEWWNDLWLNEGFASYVEYLGADFAEPTWNLKDLMVLNDVYRVMAVDALASSHPLSTPASEINTPAQISEVFDSISYSKGASVLRMLSNFLTEDLFKMGIASYLHTYKYGNTIYLNLWEHLQQVVDKQPTIKLPDTVSAIMDRWILQMGFPVITVDTQTGTISQQHFLLDPQSVVTRPSQFNYLWIVPISSVRSGSPQAHYWLPGVEKAQNDLFKTTANDWVLLNLNVTGYYLVNYDNENWKKIQTQLQTDLSVIPVINRAQVIHDAFNLASAQKVPVTLALNNTLFLIQETEYMPWQAALSSLSYFKLMFDRSEVYGPMKRYLKKQVTPLFNHFERVTKNWTDHPQTLMDQYSEINAVSTACSYGVPECEKLAATLFAQWKKNPQNNPIHPNLRSTVYCNAIAQGGEEEWNFVWEQFLKAELVNEADKLRGALACSNQVWILNRFLSYTLDPNLIRKQDVTSTLSSISSNVVGQTLVWDFVQSNWKKLFQDYGTGSFSFSNLIQAVTRRFSTEFELQQLEQFKKNNMDTGFGSATRALEQALEKTKANLKWVKENKDVVLRWFTENS
B2: the Kd in data set [2] worked out at 28 nM.

B3: Felis catus APN ectodomain dimer without the Fc fusion (FcAPN) (domain or fragment)
chain: DQSKPWNVYRLPKTLIPDSYNVTLRPYLTPNNKGLYVFTGTNIVRFTCKESTNIVIIHSKRLNYTSHQGHMVALSGVGGFHPQPVIVRTELVELTEYLVVHLQEPLVAGRQYEMNSEFQGELADDLAGFYRSEYMENGVKKVLATTHMQATEARKSFPCFDEPAMKATFNITIIHPNNLVALSNMLPRGPSVPFGEDPTWKVTEFETTPIMSTYLLAYIVSEFSYVETRAPSGVLIRIWARPSAINQGHGDYALKVTGPILDFFSQHYDTPYPLNKSDQIALPDFNAGAMENWGLVTYRESALLYDRQSSSSGNQERVVTVIAHELAHQWFGNLVTLEWWNDLWLNEGFASYVEYLGADFAEPTWNLKDLMVLNDVYRVMAVDALASSHPLSTPASEINTPAQISEVFDSISYSKGASVLRMLSNFLTEDLFKMGIASYLHTYKYGNTIYLNLWEHLQQVVDKQPTIKLPDTVSAIMDRWILQMGFPVITVDTQTGTISQQHFLLDPQSVVTRPSQFNYLWIVPISSVRSGSPQAHYWLPGVEKAQNDLFKTTANDWVLLNLNVTGYYLVNYDNENWKKIQTQLQTDLSVIPVINRAQVIHDAFNLASAQKVPVTLALNNTLFLIQETEYMPWQAALSSLSYFKLMFDRSEVYGPMKRYLKKQVTPLFNHFERVTKNWTDHPQTLMDQYSEINAVSTACSYGVPECEKLAATLFAQWKKNPQNNPIHPNLRSTVYCNAIAQGGEEEWNFVWEQFLKAELVNEADKLRGALACSNQVWILNRFLSYTLDPNLIRKQDVTSTLSSISSNVVGQTLVWDFVQSNWKKLFQDYGTGSFSFSNLIQAVTRRFSTEFELQQLEQFKKNNMDTGFGSATRALEQALEKTKANLKWVKENKDVVLRWFTENS
Regarding B3, the stoichiometry N (usually the number of molecules, sites or subunits per partner or assembly) in the data set “cryo-EM structure” is 2.
